From publication PMC12809092, “A bispecific antibody designed to act as a NRP2/PLXNA1 agonist mimics anticancer activity of SEMA3F” (The Journal of Biological Chemistry, 2025)

How the values were obtained:
[1] = target: the molecule itself; experiment: cryo-EM structure; purified complex of PLXNA1-LBD and aPLXNA1-19-43 Fab; 3.33 Å
[2] = target: T1, PLXNA1-ECD, recombinant human plexinA1 full extracellular domains (Homo sapiens, UniProt Q9UIW2); experiment: BLI; Octet Red96e; Fab captured on streptavidin tips by biotinylated anti-LC-kappa-murine antibody; PLXNA1 ECD or LBD in solution at 1.85-1350 nM; global fit, 1:1 model; conditions: both partners purified
T1 construct: plexinA1, human, extracellular domains, aa 27-1244; the DNA encoded amino acids 1-1244 of NP_115618.3 (signal peptide removed on secretion); also called hPLXNA1 ECD; source: Expi293F, transfected, purified from culture media (HiTrap MabSelect column)

[3] = target: T2, PLXNA1-LBD, recombinant human plexinA1 ligand-binding domains (human, UniProt Q9UIW2); experiment: as above; conditions: both partners purified
T2 construct: the DNA encoded amino acids 1-710 of NP_115618.3 (signal peptide removed on secretion); The final cryo-EM model holds only the SEMA and PSI1 domains; also called hPLXNA1 LBD; source: Expi293F, transfected, purified from culture media (HiTrap MabSelect column)

[4] = target: T3, hNRP2_ECD, human neuropilin-2 extracellular domain (Homo sapiens, UniProt O60462); experiment: BLI; affinity of aNRP2 mAbs to hNRP2_ECD, shown as KD; as previously described; mean ± SEM of at least 3 experiments; conditions: both partners purified
T3 construct: neuropilin-2, human, extracellular domain
T3 sequence (O60462 21-864): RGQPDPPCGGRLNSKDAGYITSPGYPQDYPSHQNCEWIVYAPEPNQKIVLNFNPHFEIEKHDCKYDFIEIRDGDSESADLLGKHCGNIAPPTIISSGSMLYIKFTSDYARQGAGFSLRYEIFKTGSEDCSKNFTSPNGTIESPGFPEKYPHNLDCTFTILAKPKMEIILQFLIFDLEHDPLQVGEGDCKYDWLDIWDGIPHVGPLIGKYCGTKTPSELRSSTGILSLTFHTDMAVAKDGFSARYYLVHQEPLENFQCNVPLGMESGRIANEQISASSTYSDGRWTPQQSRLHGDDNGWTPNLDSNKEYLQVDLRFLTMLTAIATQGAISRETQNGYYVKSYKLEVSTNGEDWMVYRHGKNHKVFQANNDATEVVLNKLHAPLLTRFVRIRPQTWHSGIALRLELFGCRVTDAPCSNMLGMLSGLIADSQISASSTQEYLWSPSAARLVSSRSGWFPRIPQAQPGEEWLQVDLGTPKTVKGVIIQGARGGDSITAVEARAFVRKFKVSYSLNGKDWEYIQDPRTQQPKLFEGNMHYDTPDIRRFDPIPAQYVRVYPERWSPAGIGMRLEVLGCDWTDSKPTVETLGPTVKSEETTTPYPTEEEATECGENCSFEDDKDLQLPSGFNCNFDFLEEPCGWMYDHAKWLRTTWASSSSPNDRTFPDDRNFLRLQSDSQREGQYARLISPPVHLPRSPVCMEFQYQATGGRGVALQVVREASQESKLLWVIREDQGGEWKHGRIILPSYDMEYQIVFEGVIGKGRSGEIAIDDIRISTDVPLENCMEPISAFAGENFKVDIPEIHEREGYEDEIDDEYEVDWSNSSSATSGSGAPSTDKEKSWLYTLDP

B1: PLXNA1-LBD, recombinant human plexinA1 ligand-binding domains (domain or fragment, UniProt Q9UIW2 27-710, looked up)
chain: EAGLPRAGGGSQPPFRTFSASDWGLTHLVVHEQTGEVYVGAVNRIYKLSGNLTLLRAHVTGPVEDNEKCYPPPSVQSCPHGLGSTDNVNKLLLLDYAANRLLACGSASQGICQFLRLDDLFKLGEPHHRKEHYLSSVQEAGSMAGVLIAGPPGQGQAKLFVGTPIDGKSEYFPTLSSRRLMANEEDADMFGFVYQDEFVSSQLKIPSDTLSKFPAFDIYYVYSFRSEQFVYYLTLQLDTQLTSPDAAGEHFFTSKIVRLCVDDPKFYSYVEFPIGCEQAGVEYRLVQDAYLSRPGRALAHQLGLAEDEDVLFTVFAQGQKNRVKPPKESALCLFTLRAIKEKIKERIQSCYRGEGKLSLPWLLNKELGCINSPLQIDDDFCGQDFNQPLGGTVTIEGTPLFVDKDDGLTAVAAYDYRGRTVVFAGTRSGRIRKILVDLSNPGGRPALAYESVVAQEGSPILRDLVLSPNHQYLYAMTEKQVTRVPVESCVQYTSCELCLGSRDPHCGWCVLHSICSRRDACERADEPQRFAADLLQCVQLTVQPRNVSVTMSQVPLVLQAWNVPDLSAGVNCSFEDFTESESVLEDGRIHCRSPSAREVAPITRGQGDQRVVKLYLKSKETGKKFASVDFVFYNCSVHQSCLSCVNGSFPCHWCKYRHVCTHNVADCAFLEGRVNVSEDCPQIL
notes: the DNA encoded amino acids 1-710 of NP_115618.3 (signal peptide removed on secretion); The final cryo-EM model holds only the SEMA and PSI1 domains; also called hPLXNA1 LBD; source: Expi293F, transfected, purified from culture media (HiTrap MabSelect column)
For B1, the “stoichiometry N” value [1] was 2.

B2: aPLXNA1-19-43 Fab (Fab, V domains shown)
VH: EVQLQQSGPELVKPGASVKISCKASGYKFTENYMDWVKQSHGESLEWIGDISPDNGDTSYNQKFRDKATLTVDKSSSTAYMELRSLTSEDSAVYYCAQIIYYDYVGYALDYWGQGTSVTVSS
VL: QIVLTQSPAILSASPGEKVTMSCSVSSSITYMHWYQQKPGTSPKRWIYDTSKLASGVPARFSGSGSGTSFSLTISNMEAEDAATYYCHQRSSYPYSFGGGTKLEIK
notes: VH of aPLXNA1-19-43; also in the deposited structure; constant part of the Fab heavy chain, mouse IgG1 backbone; VL (kappa) of aPLXNA1-19-43; mouse kappa light chain constant region (Fab captured by an anti-LC-kappa-murine antibody); Fab of the mAb aPLXNA1-19-43, the anti-PLXNA1 half of m6; also called aPLXNA1 Fab 19 to 43; aPLXNA1 Fab-P1943; source: Expi293F, transfected, purified from culture …
B2 was tested, and the Kd [2] was 2.37 ± 0.78 nM and the Kd [3] was 5.99 ± 1.14 nM.

B3: aNRP2-b2cL, anti-NRP2 mAb (antibody, V domains shown)
VH: QVRLQQPGAELVMPGASVKLSCKASGYTFTSYWMHWVKQRPGQGLEWIGVIHPNSASTFYNERFKTKATLTVDRSSSTAYMQLSSLTSEDSAVYYCSRPGTVRRSDYWGQGTTLTVSS
VL: DVLMTQSPLSLSVSLGDQASISCRSSQNIVHSTGNTYLEWYLQKPGQSPKLLIYKVSNRFSGVPDRFSGSGSGTDFTLKISRVEAEDLGVYYCFQGSHVPWTFGGGTKLEIK
notes: also called Nb2cL
B3 was tested, and the Kd [4] was 0.33 nM.
